# Measurements taken from patent US20220168400A1, “USE OF A MANGANESE SUPEROXIDE DISMUTASE WITH HIGH STABILITY IN THE PREVENTION OR TREATMENT OF CEREBRAL STROKE” (CARRY HEALTH BIOPHARMACEUTICALS (HANGZHOU) CO., LTD., priority 2019, published 2022).
# Where “and” joins values, the source holds several entries; their conditions need not be identical. Equal entries are not always repeated.
# B1: MS-SOD: manganese superoxide dismutase with high stability, gene from Thermus thermophilus HB27 expressed in E. coli; amino acid sequence SEQ ID NO: 4 (protein)
# chain: MPYPFKLPDLGYPYEALEPHIDAKTMEIHHQKHHGAYVTNLNAALEKYPYLHGVEVEVLLRHLAALPQDIQTAVRNNGGGHLNHSLFWRLLTPGGAKEPVGELKKAIDEQFGGFQALKEKLTQAAMGRFGSGWAWLVKDPFGKLHVLSTPNQDNPVMEGFTPIVGIDVWEHAYYLKYQNRRADYLQAIWNVLNWDVAEEFFKKA
# modifications: Amino acid sequence for MS-SOD
# How the values were obtained:
# [1] = tested on: cerebral ischemia model in Albino strain zebrafish; assay: Ponatinib-induced cerebral ischemia model in zebrafish; format: in vivo; conditions: for Number of zebrafish with cerebral ischemia / Incidence of cerebral ischemia: n = 20; for Incidence of cerebral ischemia: model control 100%
# Experimental: Melanin allele mutated Albino strain zebrafish at 2 days post fertilization (2 dpf) was administered with an aqueous ponatinib solution (1 μg/mL) for 18 hours to establish a cerebral ischemia model in zebrafish. 180 melanin allele mutated Albino strain zebrafishes at 2 days post fertilization (2 dpf) were randomly selected. 30 zebrafishes were treated in each well (experiment group), and aqueous MS-SOD solutions with concentrations of 222, 667 and 2000 μg/mL were administrated respectively, the concentration of positive control drug aspirin was 50 μg/m L, and the normal control group and the model control group were set at the same time. The volume of each well was 3 mL. After MS-SOD treatment for a period of time, except for the normal control group, all the other experiment groups were simultaneously administrated with aqueous ponatinib solution to induce the cerebral ischemia model in zebrafish. After 18 hours of co-treatment with MS-SOD and ponatinib, 20 fish were randomly selected from each well and stained with o-Dianisidine. After staining, photos were taken and data were collected to count the number of zebrafish with cerebral ischemia and calculate the incidence of cerebral ischemia in zebrafish of each experiment group.
# [2] = tested on: middle cerebral artery occlusion (MCAO) model in C57BL/6J mice; assay: Modified neurological severity score in MCAO model; format: in vivo; conditions: vs model group
# Experimental: (§1) (3) MS-SOD1 group (10 mice): mice aged 4 weeks were fed with drinking water supplemented with MS-SOD for 4 weeks (3 U/day/g body weight), and then subjected to establish middle cerebral artery occlusion model;
# (§2) (4) MS-SOD2 group (10 mice): after establishing middle cerebral artery occlusion model, the mice were intragastrically administered with MS-SOD 600 U once when they waked up from the anesthesia. […]
# The procedure was performed on each group of mice. […] The mice in groups 2-4 were scored by double blind method.
# (§3) Finally, the differences of different intervention conditions and MCAO model establishment on the degree of cerebral injury and neurological severity in mice were analyzed. All data were expressed as mean ±standard deviation. […]
# [3] = Specific activity of MS-SOD; format: biochemical; conditions: MS-SOD used in the zebrafish experiments
# [4] = tested on: middle cerebral artery occlusion (MCAO) model in C57BL/6J mice; assay: Cerebral infarction area in middle cerebral artery occlusion (MCAO) model (TTC staining); format: in vivo; conditions: vs model group
# Excerpt: Male C57BL/6J wild-type mice were all purchased from Guangdong Experimental Animal Center. The male C57BL/6J wild-type mice were 8 weeks old, when they were subjected to establish middle cerebral artery occlusion (MCAO) model.
# as §1, §2
# At 24 hours after MCAO model establishment, the head was cut off and the brain was taken after anesthesia. […] The infarction area of each territory was measured by ImageJ software. […] The total infarction area was calculated by integrating the infarction territories between sections.
# as §3
# [5] = tested on: cerebral hemorrhage model in wild-type AB strain zebrafish; assay: Blood flow volume in simvastatin-induced cerebral hemorrhage model in zebrafish; format: in vivo; conditions: for Blood flow volume (mean ± SE): n = 10, model control 0.13, normal control 0.30 nL/s
# Experimental: 3 dpf wild-type AB strain zebrafish was administered with an aqueous simvastatin solution (0.5 μM) for 18 hours to establish a cerebral hemorrhage model in zebrafish. 180 wild-type AB strain zebrafishes at 3 days post fertilization (3 dpf) were randomly selected and put in a six-well plate, 30 per well (experiment group). Aqueous MS-SOD solutions with concentrations of 222, 667 and 2000 μg/mL were administrated respectively, the concentration of positive control drug icariin was 30 μM, and the normal control group (the zebrafishes were treated with water for fish) and the model control group were set at the same time. The volume of each well was 3 mL. After treatment of zebrafishes with samples for 4 hours, except for the normal control group, the other experiment groups were treated with simvastatin for 18 hours to establish the cerebral hemorrhage model. After the treatment, 10 zebrafishes from each group were randomly selected and placed in a heart rate and blood flow analysis system to record blood flow video of zebrafish, and analyze the blood flow volume (O) of zebrafish. The statistical significance of the blood flow volume was used to evaluate the improvement effect of MS-SOD on blood flow volume of cerebral hemorrhage. The formula of the improvement effect of MS-SOD on blood flow volume of cerebral hemorrhage was as follows: [formula] Statistical analysis was performed using variance analysis and Dunnett's T-test, and p<0.05 indicated a significant difference. 4.
molecule,measurement,setting,value
B1,Improvement effect on cerebral ischemia,[1]; MS-SOD 222 μg/mL,60%
same,Number of zebrafish with cerebral ischemia,[1]; MS-SOD 222 μg/mL,8
same,Incidence of cerebral ischemia,[1]; MS-SOD 222 μg/mL,40%
same,Improvement effect on cerebral ischemia,[1]; MS-SOD 667 μg/mL,65%
same,Number of zebrafish with cerebral ischemia,[1]; MS-SOD 667 μg/mL,7
same,Incidence of cerebral ischemia,[1]; MS-SOD 667 μg/mL,35%
same,Improvement effect on cerebral ischemia,[1]; MS-SOD 2000 μg/mL,55%
same,Number of zebrafish with cerebral ischemia,[1]; MS-SOD 2000 μg/mL,9
same,Incidence of cerebral ischemia,[1]; MS-SOD 2000 μg/mL,45%
same,neurological severity score,"[2]; MS-SOD1 group: 3 U/day/g body weight for 4 weeks before MCAO, P=0.281",not significantly improved
same,neurological severity score (mNSS),"[2]; MS-SOD2 group: 600 U intragastrically once after MCAO, P=0.05",significantly reduced
same,specific activity,[3],5 U/μg
same,area of cerebral injury,"[4]; MS-SOD1 group: 3 U/day/g body weight for 4 weeks before MCAO, P=0",significantly reduced
same,area of cerebral injury,"[4]; MS-SOD2 group: 600 U intragastrically once after MCAO, P=0.015",significantly reduced
same,Blood flow volume improvement effect,[5]; MS-SOD 222 μg/mL,59%
same,Blood flow volume (mean ± SE),[5]; MS-SOD 222 μg/mL,0.23 nL/s and 0.23 ± 0.014 nL/s
same,Blood flow volume improvement effect,[5]; MS-SOD 667 μg/mL,71%
same,Blood flow volume (mean ± SE),[5]; MS-SOD 667 μg/mL,0.25 nL/s and 0.25 ± 0.024 nL/s
same,Blood flow volume improvement effect,[5]; MS-SOD 2000 μg/mL,71%
same,Blood flow volume (mean ± SE),[5]; MS-SOD 2000 μg/mL,0.25 nL/s and 0.25 ± 0.019 nL/s
